# In IntAct's records for PubMed 22081014:
# B1: Breast cancer anti-estrogen resistance protein 1 (Homo sapiens), P56945 (parent)
# chain: MNHLNVLAKALYDNVAESPDELSFRKGDIMTVLEQDTQGLDGWWLCSLHGRQGIVPGNRLKILVGMYDKKPAGPGPGPPATPAQPQPGLHAPAPPASQYTPMLPNTYQPQPDSVYLVPTPSKAQQGLYQVPGPSPQFQSPPAKQTSTFSKQTPHHPFPSPATDLYQVPPGPGGPAQDIYQVPPSAGMGHDIYQVPPSMDTRSWEGTKPPAKVVVPTRVGQGYVYEAAQPEQDEYDIPRHLLAPGPQDIYDVPPVRGLLPSQYGQEVYDTPPMAVKGPNGRDPLLEVYDVPPSVEKGLPPSNHHAVYDVPPSVSKDVPDGPLLREETYDVPPAFAKAKPFDPARTPLVLAAPPPDSPPAEDVYDVPPPAPDLYDVPPGLRRPGPGTLYDVPRERVLPPEVADGGVVDSGVYAVPPPAEREAPAEGKRLSASSTGSTRSSQSASSLEVAGPGREPLELEVAVEALARLQQGVSATVAHLLDLAGSAGATGSWRSPSEPQEPLVQDLQAAVAAVQSAVHELLEFARSAVGNAAHTSDRALHAKLSRQLQKMEDVHQTLVAHGQALDAGRGGSGATLEDLDRLVACSRAVPEDAKQLASFLHGNASLLFRRTKATAPGPEGGGTLHPNPTDKTSSIQSRPLPSPPKFTSQDSPDGQYENSEGGWMEDYDYVHLQGKEEFEKTQKELLEKGSITRQGKSQLELQQLKQFERLEQEVSRPIDHDLANWTPAQPLAPGRTGGLGPSDRQLLLFYLEQCEANLTTLTNAVDAFFTAVATNQPPKIFVAHSKFVILSAHKLVFIGDTLSRQAKAADVRSQVTHYSNLLCDLLRGIVATTKAAALQYPSPSAAQDMVERVKELGHSTQQFRRVLGQLAAA
# partner: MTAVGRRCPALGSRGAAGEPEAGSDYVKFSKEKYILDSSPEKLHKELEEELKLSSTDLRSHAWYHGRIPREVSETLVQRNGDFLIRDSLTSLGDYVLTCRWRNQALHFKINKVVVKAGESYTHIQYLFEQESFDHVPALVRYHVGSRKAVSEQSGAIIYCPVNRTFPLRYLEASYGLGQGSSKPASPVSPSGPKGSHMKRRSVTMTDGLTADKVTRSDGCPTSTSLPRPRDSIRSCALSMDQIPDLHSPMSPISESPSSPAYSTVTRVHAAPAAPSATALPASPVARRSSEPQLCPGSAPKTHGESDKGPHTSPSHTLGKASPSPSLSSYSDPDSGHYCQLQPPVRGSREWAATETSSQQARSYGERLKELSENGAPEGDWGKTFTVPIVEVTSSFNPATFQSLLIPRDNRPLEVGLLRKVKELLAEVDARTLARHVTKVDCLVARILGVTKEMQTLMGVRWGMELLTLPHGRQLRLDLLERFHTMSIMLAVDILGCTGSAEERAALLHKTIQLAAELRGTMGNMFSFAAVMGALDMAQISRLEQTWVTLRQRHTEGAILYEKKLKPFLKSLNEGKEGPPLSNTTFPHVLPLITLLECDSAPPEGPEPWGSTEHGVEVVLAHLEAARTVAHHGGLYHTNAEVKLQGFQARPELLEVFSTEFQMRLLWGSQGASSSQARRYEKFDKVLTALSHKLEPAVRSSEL
# B2: SH2 domain-containing protein 3C (Homo sapiens), Q8N5H7-2 (parent)
# chain: B1 partner
# partner: B1 chain
# B3: Breast cancer anti-estrogen resistance protein 3 (Homo sapiens), O75815-1 (parent)
# chain: MAAGKFASLPRNMPVNHQFPLASSMDLLSSRSPLAEHRPDAYQDVSIHGTLPRKKKGPPPIRSCDDFSHMGTLPHSKSPRQNSPVTQDGIQESPWQDRHGETFTFRDPHLLDPTVEYVKFSKERHIMDRTPEKLKKELEEELLLSSEDLRSHAWYHGRIPRQVSENLVQRDGDFLVRDSLSSPGNFVLTCQWKNLAQHFKINRTVLRLSEAYSRVQYQFEMESFDSIPGLVRCYVGNRRPISQQSGAIIFQPINRTVPLRCLEEHYGTSPGQAREGSLTKGRPDVAKRLSLTMGGVQAREQNLPRGNLLRNKEKSGSQPACLDHMQDRRALSLKAHQSESYLPIGCKLPPQSSGVDTSPCPNSPVFRTGSEPALSPAVVRRVSSDARAGEALRGSDSQLCPKPPPKPCKVPFLKVPSSPSAWLNSEANYCELNPAFATGCGRGAKLPSCAQGSHTELLTAKQNEAPGPRNSGVNYLILDDDDRERPWEPAAAQMEKGQWDKGEFVTPLLETVSSFRPNEFESKFLPPENKPLETAMLKRAKELFTNNDPKVIAQHVLSMDCRVARILGVSEEMRRNMGVSSGLELITLPHGHQLRLDIIERHNTMAIGIAVDILGCTGTLEDRAATLSKIIQVAVELKDSMGDLYSFSALMKALEMPQITRLEKTWTALRHQYTQTAILYEKQLKPFSKLLHEGRESTCVPPNNVSVPLLMPLVTLMERQAVTFEGTDMWEKNDQSCEIMLNHLATARFMAEAADSYRMNAERILAGFQPDEEMNEICKTEFQMRLLWGSKGAQVNQTERYEKFNQILTALSRKLEPPPVKQAEL
# partner: B1 chain
# Variants of: B1
# Details: with SH2D3C
row,effect of a mutation on the interaction,Variant
1,disrupting interaction,F794E;D797R
2,decreasing interaction,D797R
3,decreasing interaction,F794R
4,disrupting interaction,L787E;F794R
5,decreasing interaction,L787E

# Variants of: B1
# Details: with SH2D3C
# Remark: another data set of the same source
row,effect of a mutation on the interaction,Variant
1,disrupting interaction,F794R
2,disrupting interaction,L787E

# Variants of: B2
# Details: with bcar1_human BCAR1, P56945
row,effect of a mutation on the interaction,Variant
1,disrupting interaction,L623E
2,decreasing interaction,L469R
3,decreasing interaction,R627E

# Variants of: B2
# Details: with bcar1_human BCAR1, P56945
# Remark: another data set of the same source
row,effect of a mutation on the interaction,Variant
1,disrupting interaction,L469R

# Variants of: B3
# Details: with bcar1_human BCAR1, P56945
row,effect of a mutation on the interaction,Variant
1,disrupting interaction,R748E
2,disrupting interaction,L744E
